The values that follow come from patent US20180155451A1 (published 2018).

Assay [1] has as its target T1, FcγRIIa R (human, UniProt P12318 34-217).
T1 construct: extracellular domain; also called FcgRIIa R type; 2aR
T1 sequence (looked up): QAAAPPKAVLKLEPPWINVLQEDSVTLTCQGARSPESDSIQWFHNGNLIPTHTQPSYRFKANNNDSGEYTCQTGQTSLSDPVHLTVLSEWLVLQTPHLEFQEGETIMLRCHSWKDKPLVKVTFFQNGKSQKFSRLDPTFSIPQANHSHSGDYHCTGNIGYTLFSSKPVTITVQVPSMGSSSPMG
Description: SPR (Biacore), antibody captured, FcγR as analyte; relative binding. As to the method:
(§1) The heterodimerized antibodies He Abs in which one of the H chains was introduced with an alteration were assayed for their binding activities to each activating FcγR and inhibitory FcγR according to the method described in Example 4. […] The activating FcγRs in FIGS. 26, 27, 28, and 29 are FcγRIa, FcγRIIa (R), FcγRIIa (H), and FcγRIIIa, respectively.
(§2) Analysis of interaction between objective antibody and the FcγR was carried out using Biacore T100 (GE Healthcare). HBS-EP+ (GE Healthcare) was used as the running buffer, and the measurement temperature was set to 25° C. Chips produced by immobilizing the antigen peptide by the amine coupling method to a Series S Sencor Chip CM5 (GE Healthcare), or alternatively, chips produced by allowing preliminarily biotinylated antigen peptides to interact with and immobilize onto a Series S Sensor Chip SA (certified) (GE Healthcare) were used. Antibodies of interest were captured onto an antigen peptide-immobilized chip, and allowed to interact to each FcγR diluted with running buffer. To regenerate and repeatedly use the chip, the antibodies captured on the chip were washed off by reacting 10 mM glycine-HCl, pH 1.5.
On the technique in general: SPR reads the build-up and loss of mass on a sensor chip optically.

A further assay addresses T2, FcγRIIb (human, UniProt P31994 43-217).
T2 construct: extracellular domain; also called FcgRIIb; 2b
T2 sequence (looked up): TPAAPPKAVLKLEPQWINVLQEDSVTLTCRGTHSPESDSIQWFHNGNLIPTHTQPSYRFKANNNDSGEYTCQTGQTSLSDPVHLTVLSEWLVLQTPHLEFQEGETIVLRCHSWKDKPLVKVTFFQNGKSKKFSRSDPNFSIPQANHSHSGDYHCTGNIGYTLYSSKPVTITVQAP
The description is as above. The procedure: as §1, §2

In assay [2] the target is T1, FcγRIIa R. Description: SPR; He/Con_2aR divided by He/Con_2b (FcγRIIb as reference). The procedure: as §1, §2

B1: GpH7-A5/GpH7-B3 variant P271_04F/GpL16-k0 (antibody, human IgG1, kappa)
heavy 1: not shown
heavy 2: not shown
light: DIVMTQSPLSLPVTPGEPASISCQASESLVHSNRNTYLHWYLQKPGQSPQLLIYKVSNRFSGVPDRFSGSGSGTDFTLKISRVEAEDVGVYYCSQNTHVPPTFGQGTKVEIERTVAAPSVFIFPPSDEQLKSGTASVVCLLNNFYPREAKVQWKVDNALQSGNSQESVTEQDSKDSTYSLSSTLTLSKADYEKHKVYACEVTHQGLSSPVTKSFNRGEC
notes: heterodimerized antibody, mutation in the GpH7-B3 chain only; also called He Ab
For the molecule B1, the “He/Con_2aR (IIaR binding)” value in the assay with FcγRIIa R [1] was 75.9 % of GpH7-A5/GpH7-B3/GpL16-k0 (=100). Further, in the assay with FcγRIIb, the “He/Con_2b (IIb binding)” value is 59.5 % of GpH7-A5/GpH7-B3/GpL16-k0 (=100). For the same molecule, the “IIaR/IIb (He_2aR/2b)” value with FcγRIIa R [2] was determined as 1.28 ratio.

B2: GpH7-A5/GpH7-B3 variant H268_06M/GpL16-k0 (antibody, human IgG1, kappa)
heavy 1: not shown
heavy 2: not shown
light: DIVMTQSPLSLPVTPGEPASISCQASESLVHSNRNTYLHWYLQKPGQSPQLLIYKVSNRFSGVPDRFSGSGSGTDFTLKISRVEAEDVGVYYCSQNTHVPPTFGQGTKVEIERTVAAPSVFIFPPSDEQLKSGTASVVCLLNNFYPREAKVQWKVDNALQSGNSQESVTEQDSKDSTYSLSSTLTLSKADYEKHKVYACEVTHQGLSSPVTKSFNRGEC
notes: as for B1
On to B2, for which the “He/Con_2aR (IIaR binding)” value with FcγRIIa R [1] was 81 % of GpH7-A5/GpH7-B3/GpL16-k0 (=100). Also, the “He/Con_2b (IIb binding)” value with FcγRIIb was 65.7 % of GpH7-A5/GpH7-B3/GpL16-k0 (=100). The “IIaR/IIb (He_2aR/2b)” value in the assay with FcγRIIa R [2] stood at 1.23 ratio.

B3: GpH7-A5/GpH7-B3 variant E269_19Q/GpL16-k0 (antibody, human IgG1, kappa)
heavy 1: not shown
heavy 2: not shown
light: DIVMTQSPLSLPVTPGEPASISCQASESLVHSNRNTYLHWYLQKPGQSPQLLIYKVSNRFSGVPDRFSGSGSGTDFTLKISRVEAEDVGVYYCSQNTHVPPTFGQGTKVEIERTVAAPSVFIFPPSDEQLKSGTASVVCLLNNFYPREAKVQWKVDNALQSGNSQESVTEQDSKDSTYSLSSTLTLSKADYEKHKVYACEVTHQGLSSPVTKSFNRGEC
notes: as for B1
Take B3: the “He/Con_2aR (IIaR binding)” value in the assay with FcγRIIa R [1] is 57.8 % of GpH7-A5/GpH7-B3/GpL16-k0 (=100). In the assay with FcγRIIb, the “He/Con_2b (IIb binding)” value is 44.3 % of GpH7-A5/GpH7-B3/GpL16-k0 (=100). Further, the “IIaR/IIb (He_2aR/2b)” value in the assay with FcγRIIa R [2] came to 1.31 ratio.

B4: GpH7-A5/GpH7-B3 variant H268_11K/GpL16-k0 (antibody, human IgG1, kappa)
heavy 1: not shown
heavy 2: not shown
light: DIVMTQSPLSLPVTPGEPASISCQASESLVHSNRNTYLHWYLQKPGQSPQLLIYKVSNRFSGVPDRFSGSGSGTDFTLKISRVEAEDVGVYYCSQNTHVPPTFGQGTKVEIERTVAAPSVFIFPPSDEQLKSGTASVVCLLNNFYPREAKVQWKVDNALQSGNSQESVTEQDSKDSTYSLSSTLTLSKADYEKHKVYACEVTHQGLSSPVTKSFNRGEC
notes: as for B1
For B4, in the assay with FcγRIIa R [1], the “He/Con_2aR (IIaR binding)” value is 100 % of GpH7-A5/GpH7-B3/GpL16-k0 (=100). In addition, the “He/Con_2b (IIb binding)” value with FcγRIIb was 83 % of GpH7-A5/GpH7-B3/GpL16-k0 (=100). Further, the “IIaR/IIb (He_2aR/2b)” value with FcγRIIa R [2] worked out at 1.21 ratio.

B5: GpH7-A5/GpH7-B3 variant E269_16H/GpL16-k0 (antibody, human IgG1, kappa)
heavy 1: not shown
heavy 2: not shown
light: DIVMTQSPLSLPVTPGEPASISCQASESLVHSNRNTYLHWYLQKPGQSPQLLIYKVSNRFSGVPDRFSGSGSGTDFTLKISRVEAEDVGVYYCSQNTHVPPTFGQGTKVEIERTVAAPSVFIFPPSDEQLKSGTASVVCLLNNFYPREAKVQWKVDNALQSGNSQESVTEQDSKDSTYSLSSTLTLSKADYEKHKVYACEVTHQGLSSPVTKSFNRGEC
notes: as for B1
Take B5: in the assay with FcγRIIa R [1], the “He/Con_2aR (IIaR binding)” value was 50.7 % of GpH7-A5/GpH7-B3/GpL16-k0 (=100). For the same molecule, the “He/Con_2b (IIb binding)” value in the assay with FcγRIIb was 38.5 % of GpH7-A5/GpH7-B3/GpL16-k0 (=100). The “IIaR/IIb (He_2aR/2b)” value with FcγRIIa R [2] came to 1.32 ratio.

B6: GpH7-A5/GpH7-B3 variant E269_11K/GpL16-k0 (antibody, human IgG1, kappa)
heavy 1: not shown
heavy 2: not shown
light: DIVMTQSPLSLPVTPGEPASISCQASESLVHSNRNTYLHWYLQKPGQSPQLLIYKVSNRFSGVPDRFSGSGSGTDFTLKISRVEAEDVGVYYCSQNTHVPPTFGQGTKVEIERTVAAPSVFIFPPSDEQLKSGTASVVCLLNNFYPREAKVQWKVDNALQSGNSQESVTEQDSKDSTYSLSSTLTLSKADYEKHKVYACEVTHQGLSSPVTKSFNRGEC
notes: as for B1
With B6, the “He/Con_2aR (IIaR binding)” value in the assay with FcγRIIa R [1] was 38.1 % of GpH7-A5/GpH7-B3/GpL16-k0 (=100). In the assay with FcγRIIb, the “He/Con_2b (IIb binding)” value was 17.8 % of GpH7-A5/GpH7-B3/GpL16-k0 (=100). For the same molecule, the “IIaR/IIb (He_2aR/2b)” value in the assay with FcγRIIa R [2] came to 2.14 ratio.

B7: GpH7-A5/GpH7-B3 variant E269_12R/GpL16-k0 (antibody, human IgG1, kappa)
heavy 1: not shown
heavy 2: not shown
light: DIVMTQSPLSLPVTPGEPASISCQASESLVHSNRNTYLHWYLQKPGQSPQLLIYKVSNRFSGVPDRFSGSGSGTDFTLKISRVEAEDVGVYYCSQNTHVPPTFGQGTKVEIERTVAAPSVFIFPPSDEQLKSGTASVVCLLNNFYPREAKVQWKVDNALQSGNSQESVTEQDSKDSTYSLSSTLTLSKADYEKHKVYACEVTHQGLSSPVTKSFNRGEC
notes: as for B1
With B7, the “He/Con_2aR (IIaR binding)” value with FcγRIIa R [1] is 35 % of GpH7-A5/GpH7-B3/GpL16-k0 (=100). For the same molecule, the “He/Con_2b (IIb binding)” value with FcγRIIb is 25.2 % of GpH7-A5/GpH7-B3/GpL16-k0 (=100). The “IIaR/IIb (He_2aR/2b)” value in the assay with FcγRIIa R [2] was 1.39 ratio.

B8: GpH7-A5/GpH7-B3 variant E269_18N/GpL16-k0 (antibody, human IgG1, kappa)
heavy 1: not shown
heavy 2: not shown
light: DIVMTQSPLSLPVTPGEPASISCQASESLVHSNRNTYLHWYLQKPGQSPQLLIYKVSNRFSGVPDRFSGSGSGTDFTLKISRVEAEDVGVYYCSQNTHVPPTFGQGTKVEIERTVAAPSVFIFPPSDEQLKSGTASVVCLLNNFYPREAKVQWKVDNALQSGNSQESVTEQDSKDSTYSLSSTLTLSKADYEKHKVYACEVTHQGLSSPVTKSFNRGEC
notes: as for B1
Take B8: the “He/Con_2aR (IIaR binding)” value with FcγRIIa R [1] is 59.2 % of GpH7-A5/GpH7-B3/GpL16-k0 (=100). Further, in the assay with FcγRIIb, the “He/Con_2b (IIb binding)” value is 44.8 % of GpH7-A5/GpH7-B3/GpL16-k0 (=100). Also, the “IIaR/IIb (He_2aR/2b)” value with FcγRIIa R [2] is 1.32 ratio.
